Like-named read-outs stand apart in the source and are kept apart here.
Columns and labels:
[1] = target: T1, recombinant SARS-CoV-2 spike S1 RBD (R319-F541), C-terminal 6-His (SARS-CoV-2, UniProt P0DTC2 319-541); assay: sandwich dipstick, detector Ab5-AuNP
[2] = target: T2, UK variant RBD (R319-F541 with N501Y), C-terminal 6-His (SARS-CoV-2, UniProt P0DTC2 319-541); assay: sandwich dipstick, detector Ab5-AuNP
[3] = target: T3, SA variant RBD (R319-F541 with K417N, E484K, N501Y), C-terminal 6-His (SARS-CoV-2, UniProt P0DTC2 319-541); assay: sandwich dipstick, detector Ab5-AuNP
[4] = target: T4, BR P.1 variant RBD (R319-F541 with K417T, E484K, N501Y), C-terminal 6-His (SARS-CoV-2, UniProt P0DTC2 319-541); assay: sandwich dipstick, detector Ab5-AuNP
[5] = target: T3, SA variant RBD (R319-F541 with K417N, …); assay: lateral flow NC50, RBD-AuNP vs immobilised ACE2
[6] = target: T4, BR P.1 variant RBD (R319-F541 with …); assay: lateral flow NC50, RBD-AuNP vs immobilised ACE2
[7] = target: T1, recombinant SARS-CoV-2 spike S1 RBD …; assay: sandwich dipstick, capture Ab7, detector Ab4-AuNP
[8] = target: T2, UK variant RBD (R319-F541 with N501Y), …; assay: sandwich dipstick, capture Ab7, detector Ab4-AuNP
[9] = target: T3, SA variant RBD (R319-F541 with K417N, …); assay: sandwich dipstick, capture Ab7, detector Ab4-AuNP
[10] = target: T4, BR P.1 variant RBD (R319-F541 with …); assay: sandwich dipstick, capture Ab7, detector Ab4-AuNP
[11] = target: T1, recombinant SARS-CoV-2 spike S1 RBD …; assay: lateral flow NC50, RBD-AuNP vs immobilised ACE2
[12] = target: T2, UK variant RBD (R319-F541 with N501Y), …; assay: lateral flow NC50, RBD-AuNP vs immobilised ACE2
[13] = target: T1, recombinant SARS-CoV-2 spike S1 RBD …; assay: lateral flow NC50, RBD-AuNP vs immobilised ACE2; remark: listed apart in the source
[14] = target: T2, UK variant RBD (R319-F541 with N501Y), …; assay: lateral flow NC50, RBD-AuNP vs immobilised ACE2; remark: listed apart in the source
[15] = target: K417E RBD (R319-F541 with K417E) (SARS-CoV-2, UniProt P0DTC2 319-541); assay: lateral flow NC50, RBD-AuNP vs immobilised ACE2
[16] = target: T478K RBD (R319-F541 with T478K) (SARS-CoV-2, UniProt P0DTC2 319-541); assay: lateral flow NC50, RBD-AuNP vs immobilised ACE2
[17] = target: T1, recombinant SARS-CoV-2 spike S1 RBD …; assay: flow cytometry, blocking of binding to hACE-2 cells
[18] = target: T1, recombinant SARS-CoV-2 spike S1 RBD …; assay: as above; remark: listed apart in the source
[19] = target: T4, BR P.1 variant RBD (R319-F541 with …); assay: as above
[20] = target: T5, IN v2 variant RBD (R319-F541 with L452R, T478K) (SARS-CoV-2, UniProt P0DTC2 319-541); assay: as above
[21] = target: rSARS2 RBD aa319-541, N439K, C-His (SARS-CoV-2, UniProt P0DTC2 319-541); assay: as above
[22] = target: rSARS2-B.1.1.7 S aa16-1211 2x aa mut., C-His (SARS-CoV-2, UniProt P0DTC2 16-1211); assay: as above
[23] = target: rSARS2-B.1.1.7 S aa16-1211 4x aa mut., C-His (SARS-CoV-2, UniProt P0DTC2 16-1211); assay: as above
[24] = target: rSARS2-B.1.617.2 S aa16-1211 10+4x aa mut., C-His (SARS-CoV-2, UniProt P0DTC2 16-1211); assay: as above
[25] = target: BR P.2 variant RBD (R319-F541 with E484K) (SARS-CoV-2, UniProt P0DTC2 319-541); assay: dipstick, adsorbed RBD spots, Ab 10 µg/mL, GAM-AuNP
[26] = target: L452R RBD (R319-F541 with L452R) (SARS-CoV-2, UniProt P0DTC2 319-541); assay: as above
[27] = target: IN v1 variant RBD (R319-F541 with L452R, E484Q) (SARS-CoV-2, UniProt P0DTC2 319-541); assay: as above
[28] = target: T5, IN v2 variant RBD (R319-F541 with …); assay: as above

B1: 1035240 (antibody, V domains shown)
VH: QVQLQQSGAELARPGASVKMSCKASGYTFTTYTMHWVKQRPGQGLEWIGYINPSSGYTNYNQKFKDKATLTADTSSSTAYMQLSSLTSEDSAVYYCARRNPLYAMDYWGQGTSVTVSS
VL: DIKMTQSPSSMYASLGERVTITCKASQDINSYLNWFQQKPGKSPKTLIYRANRLVDGVPSRFSGSGSGQDYSLTISSLEYEDMGIYYCLQYDEFPYTFGGGTKLEIK
detection sensitivity [1]: 0.001 µg/mL
detection sensitivity [2]: 0.001 µg/mL
detection sensitivity [3]: 0.001 µg/mL
detection sensitivity [4]: 0.001 µg/mL
IC50 [5]: > 45 µg/mL
IC50 [6]: > 45 µg/mL
detection sensitivity [7]: 0.01 µg/mL
detection sensitivity [8]: 0.01 µg/mL
detection sensitivity [9]: 0.1 µg/mL
detection sensitivity [10]: 0.1 µg/mL
IC50 [11]: 0.34 µg/mL
IC50 [12]: 0.86 µg/mL
IC50 [13]: 0.34 µg/mL
IC50 [14]: 0.86 µg/mL
IC50 [15]: 0.33 µg/mL
IC50 [16]: 0.61 µg/mL
percent blocking [17]: 99.1%
percent blocking [18]: 99.1%
percent blocking [19]: 0%
percent blocking [20]: 0.7%
percent blocking [21]: 49%
percent blocking [22]: 91.2%
percent blocking [23]: 78.6%
percent blocking [24]: 0%
binding result [25]: no binding (tested: 10 µg/mL)
binding result [26]: no binding (tested: 10 µg/mL)
binding result [27]: no binding (tested: 10 µg/mL)
binding result [28]: no binding (tested: 10 µg/mL)

Source: patent publication US20230408517A1 (BIO TECHNE, published 2023)
